From PMC2954370 (Antiviral research, 2010)
Residue numbers refer to the chain shown, from its start.

B1: HIV-1 envelope glycoprotein gp120 of isolate Bal (natural protein)
chain: not shown
B2: m36 mutant m36.4 (VHH)
VHH: QVQLVQSGGGLVQPGGSLRLSCAASAFDFSDYEMSWVREAPGKGLEWIGEINDSGNTIYNPSLKSRVTISRDNSKNTLYLQMNTLRAEDTAIYYCAIYGGNSGGEYWGQGTLVTVSS
B3: m36 mutant m36.5 (VHH)
VHH: B2 VHH with R86S
B4: m36 mutant m36.1 (VHH)
VHH: B2 VHH with A26T, S65N

How the values were obtained:
[1] = biological target: fusion protein of m36 with human IgG1 Fc (human); experiment: ELISA
[2] = biological target: B1; experiment: cell-based or functional assay
[3] = biological target: T1, HIV-1 Env gp140 of isolate JRFL (HIV-1 isolate JRFL (clade B), UniProt Q75760); experiment: cell-based or functional assay
[4] = biological target: B1; experiment: ELISA
[5] = biological target: T1, HIV-1 Env gp140 of isolate JRFL; experiment: ELISA

Binder | binding result [1] | IC50 of neutralisation of HIV-1 Bal Env-pseudotyped virus, HOS-CD4-CCR5 cells [2] | IC50 of neutralisation of HIV-1 JRFL Env-pseudotyped virus, HOS-CD4-CCR5 cells [3] | binding result [4] | binding result [5]
B1 | binds |  |  |  | 
B2 |  | 11 nM | 27 nM |  | 
B3 |  |  |  | binds | binds
B4 |  |  |  | binds | binds
